In US20220267415A1:

B1: anti-SARS-CoV2-09 IgG (antibody, V domains shown)
VH: QVQLHQWGAGLLKPSETLSRTCAVYGGSFSGYYWTWIRQAPGKGLEWIGEINHGGSTRYNPSLESRVSISVDTSKKQFSLELRSVTAADTAIYYCARGYDTNWYGDGYNWFDPWDRGTLVTVSS
VL: QSALTQDPSVSVALGQTVRITCQGDSLRGSFASWYRQKPGQAPVLVIFGINNRPSGVPDRFSGSSSGNTASLTITGAQAEDEADYYCNSRESNSNRILFGGGTKVTVL
B2: anti-SARS-CoV2-16 IgG (antibody, V domains shown)
VH: B1 VH
VL: QAVVTQPPSVSGTPGQRVTISCSGSSSSIGSNTVHWYQHLPGTAPKLLMYNNNERPSGVPARFSGSKSGTSASLVITGLQADDEAEYYCQSYDTGLSGHVFGSGTELTVL

Biological target: recombinant SARS-CoV-2 Receptor Binding Domain (RBD) with a his tag (ATUM, Cat. 65639.1.a) (SARS-CoV-2), P0DTC2
Test: ELISA on coated RBD-his
Conditions: remark: other sources report otherwise

Row | Binder | EC50
1 | B1 | 2.3 nM
2 | B2 | 4.2 nM
